Tests used:
[1] = tested on: LNCaP tumors; assay: Dynamic PET imaging, tumor uptake in LNCaP xenografts; assay type: in vivo, mouse; conditions: LNCaP tumors, pre-dosing i.v. with 300 µg Ava-BBN2 15 min before radiotracer, n = 3, p < 0.01
Description: (§1) For PET experiments and as prostate cancer xenograft models, male PC3 and LNCaP tumor-bearing BALB/c Nude mice were used (body weight: 22−24 g, Charles River Laboratories, Saint-Constant, QC, Canada). To generate the tumor xenografts, about 5−6 × 10^6 PC3 cells in 100 μL of PBS or 20−25 × 10^6 LNCaP cells in 200 μL of PBS/Matrigel (50/50) were subcutaneously injected into the left shoulder of male BALB/c Nude mice. For the androgen-dependent LNCaP model, a 1.5 mg pellet containing dehydroepiandrosterone DHEA (60-day release; Innovative Research of America, Sarasota, FL, U.S.A.) was implanted subcutaneously into the upper right flank shortly before LNCaP cell injection. PC3 tumors and LNCaP tumors reached sizes of ∼300−500 mm^3 after 3−5 weeks and 6−8 weeks, respectively, and were used for the in vivo experiments. PET imaging of E5B9-^68Ga-NOTA-BBN2 monomeric and dimeric TMs was performed on an INVEON® PET/CT scanner (Siemens Preclinical Solutions, Knoxville, TN, USA). Prior to radiotracer injection, mice were anesthetized through inhalation of isoflurane in 40% oxygen/60% nitrogen (gas flow 1 L/min), and body temperature was kept constant at 37 °C. The mice were placed in a prone position in the center of the field of view. A transmission scan for attenuation correction was not acquired. Mice were injected with 4−8 MBq of E5B9-^68Ga-NOTA-BBN2 or E5B9-^68Ga-NOTA-(BBN2)2 in 150 μL 10% EtOH/saline solution through a tail vein catheter. For blocking studies, PC3- and LNCaP-tumor-bearing […] mice were pre-dosed i.v. with 300 μg of Ava-BBN2 (15 min prior to radiotracer injection) in 50 uL saline. Data acquisition was performed over 60 min in 3D list mode. The dynamic list mode data were sorted into sinograms with 54 time frames (10 × 2, 8 × 5, 6 × 10, 6 × 20, 8 × 60, 10 × 120, 6 × 300 s). The frames were reconstructed using maximum a posteriori (MAP) as the reconstruction mode. No correction for partial volume effects was applied. The image files were processed using the ROVER v2.0.51 software (ABX GmbH, Radeberg, Germany). […] ROIs covered all visible tumor mass of the subcutaneous tumors, and the thresholds were defined by 50% of the maximum radioactivity uptake level. Mean standardized uptake values [SUVmean = (activity/mL tissue)/(injected activity/body weight), […]] were calculated for each ROI, and time−activity curves (TACs) were generated. For each experimental group (different radiotracers and mouse tumor models as well as control and blocking experiments), n = 3–6 mice were measured. […] Blocking experiments were conducted in the same mice: first, a control scan was measured and then repeated 1–2 days after in the presence of a blocking concentration of 300 μg of Ava-BBN2. All semi-quantified PET data are presented as means ± SEM. […]

[2] = as above; assay type: in vivo, mouse; conditions: male, BALB/c Nude, mouse, LNCaP xenograft tumor, iv, total radioactivity; LNCaP tumor-bearing mice, PET, 60 min p.i., i.v., mean ± SEM, n = 3-4; read-out: SUVmean,60min tumor uptake
Description: as §1

[3] = In vivo metabolic stability in venous blood plasma; parameters: species or system mouse; conditions: BALB/c mice, i.v., 60 min p.i., radio-HPLC, mean ± SEM, n = 3, listed as dimeric TM
Description: For metabolic stability studies in vivo, normal male BALB/c mice (body weight: 23−26 g, Charles River Laboratories, Saint-Constant, QC, Canada) were anesthetized through inhalation of isoflurane in 40% oxygen/60% nitrogen (gas flow 1 L/min) prior to i.v. radiotracer injection via the tail vein. Mice were injected with 28-50 MBq of E5B9-^68Ga-NOTA-BBN2 TM, E5B9-^68Ga-NOTA-(BBN2)2 TM, or ^68Ga-NOTA-Ava-Glu-(BBN2)2 dimer in 150 μL of 10% EtOH/saline. Venous blood samples were collected at 5, 15, 30, and 60 min post-injection via the mouse tail vein and further processed. Blood cells were separated by centrifugation (13,000 rpm × 5 min). The supernatant was removed, and the contained proteins were precipitated by the addition of 2 volume parts of methanol (2 vol of MeOH/1 vol of the sample). Another centrifugation step (13,000 rpm × 5 min) was performed to obtain plasma. The clear plasma supernatant was injected into a Shimadzu HPLC system. The samples were analyzed using a Phenomenex Luna 10u C18(2) 100A, 250 × 4.6 mm column, at a constant flow rate of 1 mL/min, and the following gradient with water/0.2% TFA as solvent A and acetonitrile as solvent B: 0−3 min 10% B, 10 min 30% B, 17 min 50% B, 23 min 70% B, and 27−30 min 90% B. For each radiotracer (monomers and dimers with and without E5B9) blood samples from n = 3 mice were analyzed. […]

[4] = Dynamic PET imaging, tumor uptake in PC3 xenografts; assay type: in vivo, mouse; conditions: male, BALB/c Nude, mouse, PC3 xenograft tumor, iv, total radioactivity; PC3 tumor-bearing mice, PET, 60 min p.i., i.v., mean ± SEM, n = 4-6; read-out: SUVmean,60min tumor uptake
Description: as §1

Structure (SMILES): CC[C@H](C)[C@@H](CCC(=O)N[C@H](C(N)=O)C(C)(C)C)NC(=O)[C@H](Cc1c[nH]cn1)NC(=O)CN(C)C(=O)[C@@H](NC(=O)[C@H](C)NC(=O)[C@H](Cc1c[nH]c2ccccc12)NC(=O)[C@H](CCC(N)=O)NC(=O)CCCCNC(=O)CC[C@H](NC(=O)[C@H](CCCCn1nnc2c1-c1ccccc1CN(C(=O)CCNC(=O)CCOCCOCCOCCOCCNC(=O)CCN1C(=O)CC(SC[C@H](NC(=O)[C@H](Cc3ccc(O)cc3)NC(=O)[C@H](CCC(=O)O)NC(=O)[C@H](CC(=O)O)NC(=O)[C@@H](NC(=O)[C@@H](NC(=O)[C@H](CCC(=O)O)NC(=O)[C@@H]3CCCN3C(=O)[C@H](CC(C)C)NC(=O)[C@@H]3CCCN3C(=O)[C@H](CCCCN)NC(=O)[C@@H](N)CO)C(C)C)[C@@H](C)O)C(=O)O)C1=O)c1ccccc1-2)NC(=O)CCCCNC(=S)Nc1ccc(C[C@H]2CN(CC(=O)O)CCN(CC(=O)O)CCN2CC(=O)O)cc1)C(=O)NCCCCC(=O)N[C@@H](CCC(N)=O)C(=O)N[C@@H](Cc1c[nH]c2ccccc12)C(=O)N[C@@H](C)C(=O)N[C@H](C(=O)N(C)CC(=O)N[C@@H](Cc1c[nH]cn1)C(=O)N[C@H](CCC(=O)N[C@H](C(N)=O)C(C)(C)C)[C@@H](C)CC)C(C)C)C(C)C (stereo partly shown) [dimeric ^68Ga-(BBN2)2 TM, metal not drawn]
- in vivo blocking of tumor uptake [1]: 43 ± 3%
- SUV at 1 h [2]: 0.38 ± 0.03 SUV
- intact 68Ga-peptide remaining [3]: 93 ± 1%
- SUV at 1 h [4]: 0.51 ± 0.1 SUV

From PMC11941939, “Tackling Prostate Cancer with Theranostic E5B9-Bombesin Target Modules (TMs): From Imaging to Treatment with UniCAR T-Cells” (International Journal of Molecular Sciences, 2025)
